{
  "source": "patent US20240084023A1",
  "about": "(NGM BIOPHARMACEUTICALS, published 2024)",
  "binders": {"B1": {"name": "anti-GCGR antibody Hz6B5 (antibody, V domains shown)", "VH": "QVQLVQSGAEVKKPGSSVKVSCKASGFTFTNHWLGWVRQAPGQGLEWIGDIYPGGYYINYNEKFKGRVTITADESTSTAYMELSSLRSEDTAVYYCARHTNYGSDYWGQGTTVTVSS", "VL": "DVVMTQSPLSLPVTLGQPASISCRSSQSIVDSYGNTFLEWYQQRPGQSPRLLIYKVSNRLSGVPDRFSGSGSGTDFTLKISRVEAEDVGVYYCFQGSHVPWTFGQGTKLEIK", "notes": "Humanized 6B5"}},
  "key": {"[1]": {"molecular_target": "T1, GCGR extracellular domain alanine mutant R116A (human, UniProt P47871 26-136, limits assumed)", "T1 construct": "expressed in 293XP cells", "T1 chain": "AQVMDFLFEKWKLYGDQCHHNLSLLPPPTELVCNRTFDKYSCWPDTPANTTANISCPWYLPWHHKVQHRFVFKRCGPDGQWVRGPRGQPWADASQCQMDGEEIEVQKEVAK", "test": "flow cytometry on transfected 293XP cells", "experimental": "(§1) To assist in gathering information on the GCGR epitope that the 6B5 binning group bound to, “alanine scanning mutagenesis” was undertaken. These alanine scanning mutagenesis platform is a technique used for mapping both linear and conformational antigen epitopes by evaluating the effects of point mutations across a target protein. Single residues in a target protein are replaced by alanine one at a time to construct a mutant library. Each variant is assayed for its ability to bind to an antibody of interest. […] Amino acids across the extracellular domain of GCGR were mutated to alanine and the anti-GCGR antibody Hz6B5 was tested for binding to the alanine mutants.\n(§2) The wild-type GCGR extracellular domain and the alanine mutants were each transfected into 293XP cells and incubated for 24 hours. Antibody Hz6B5 was incubated with the transfected cells for 30 minutes at 4° C. After washing with PBS/1% BSA/0.1% azide, the cells were incubated with a labeled anti-mouse Fc antibody (Jackson Immunoresearch) for 30 minutes at 4° C. After washing with PBS/1% BSA/0.1% azide, the cells were analyzed using a flow cytometer BD (FACSCalibur instrument) and cytometric analytical software (FlowJo). A serum sample from a mouse immunized with human GCGR was used as positive control to confirm expression of the alanine mutants."}, "[2]": {"molecular_target": "T2, GCGR extracellular domain alanine mutant L85A (human, UniProt P47871 26-136, limits assumed)", "T2 construct": "expressed in 293XP cells", "T2 chain": "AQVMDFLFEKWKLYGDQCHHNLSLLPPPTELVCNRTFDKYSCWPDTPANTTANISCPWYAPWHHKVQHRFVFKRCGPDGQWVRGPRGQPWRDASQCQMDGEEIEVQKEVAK", "test": "flow cytometry on transfected 293XP cells", "experimental": "as §1, §2"}},
  "data": [
    {"binder": "B1", "values": [
      {"measurement": "% positive cells", "setting": "[1]", "value": 85.9, "unit": "%"},
      {"measurement": "% positive cells", "setting": "[2]", "value": 11.7, "unit": "%"}
    ]}
  ]
}
